Laboratory results taken from patent US20150110794A1 (CELL SIGNALING TECHNOLOGY, published 2015).

Assays:
[1] = molecular target: CMV AD169 envelope glycoprotein B (gB) (human cytomegalovirus strain AD169, UniProt P06473 32-906); test: cell-based or functional assay
[2] = molecular target: T1, AD4 polypeptide (cloned AD4 fragment of CMV AD169 envelope glycoprotein B) (human cytomegalovirus strain AD169, UniProt P06473 112-438); test: SPR (Biacore T200), antibody captured on anti-human IgG CM5 chip, AD4 polypeptide as analyte, 1:1 model
T1 construct: also called antigenic domain 4

| Binder | CMV Neutr. IC50 [1] | Kd [2] | koff [2] | kon [2] |
| --- | --- | --- | --- | --- |
| C15 (antibody, V domains shown, Human IgG, transiently expressed in HEK293) VH: EMQLLESGGGLVQPGGSLRVSCAASGFTFSSHAMSWVRQAPGKGLEWVSSISRSGDNTFYADSVKGRFTISRDNIKSTVYLQMNSLRAEDTAVYFCASRYTEGDSVWYFDVWGRGTLVTVSS VL: EVVLTQSPATLSVSAGDRATLSCRASQSVSRDLAWYQQKPGQAPRLLIYGASTRATDIPVRFSGSGSGTEFSLTISSLQSEDFAVYYCHQYKHWPRTFGQGTKVEIKR | < 0.3 µg/mL | 6.44 nM | 0.00234 s⁻¹ | 363000 M⁻¹ s⁻¹ |
| C12 (antibody, V domains shown, Human IgG, transiently expressed in HEK293) VH: QVQLQESGPGLVKPLETLSLTCTVSGGSIRGGDYWWTWVRQPPGKGLEWLGYIYRTGSTYYNPSLKSRLTISLDTSKNHFSLKLASATAADTAVYYCARDPGDDSGGNSGLDYWGQGVLVSVSS VL: QSMLTQPPSVSAAPGQKVIISCSGSSSNIGNNFVNWYQKFPGTAPKLLIYDNDKRPSGIPDRFSGSKSGTSATLGITGLQTGDEAEYYCGTWDSSLTAGVFGGGTTLTVLG | > 50 µg/mL | 3.27 nM | 0.00369 s⁻¹ | 1.13e+06 M⁻¹ s⁻¹ |
| C11 (antibody, V domains shown, Human IgG, transiently expressed in HEK293) VH: EVQLLESGGGLIQPGGSLRLSCVASGFTFTRHAINWVRQAPGKGLEWVSAISGSGSSTYYADSVKGRFTISRDNAKNTLYLQMNRLRVEDTAVYYCAKDKDYGMVAATPDAFDIWGQGTMVTVSS VL: QSVLTQPPSVSAAPGQKVTISCSGSRSNIAKNYVYWYQQLPGTAPKLLIYDTNKRPSGIPDRFSGSKSGTSATLAITGLQTGDEADYYCGTWDSSLKTAIFFGGGTTVTVLG | > 50 µg/mL | 5.67 nM | 0.00109 s⁻¹ | 192000 M⁻¹ s⁻¹ |
| C6 (antibody, V domains shown, Human IgG, transiently expressed in HEK293) VH: QVQLQESGPGLVKPLETLSLTCTVSGGSISSGSFYWTWIRQHPGKGLEWIGYIHSSGTTYYNPSLKSRLNISRDTSKNQFTLKLSSVTAADTAVYYCAKEIIQWPRRWFDPWGQGTLVTVSS VL: not shown | < 2 µg/mL | 2.5 nM | 0.00138 s⁻¹ | 554000 M⁻¹ s⁻¹ |
| C3 (antibody, V domains shown, Human IgG, transiently expressed in HEK293) VH: QVQLQESGPGLVKPLETLSLTCTVSGGSISSGSFYWTWIRQHPGKGLEWIGYIHSSGTTYYNPSLKSRLNISRDTSKNQFTLKLSSVTAADTAVYYCAKEIIQWPRRWFDPWGQGTLVTVSS VL: QSMLTQPPSVSAAPGQKVIISCSGSSSNIGNNYVNWYQQLPGTAPKLLIYDNDKRPSGIPDRFSGSKSGTSATLGITGLQTGDEADYYCGTWDSTLTAGVFGGGTKLTVLG | < 0.07 µg/mL | 0.549 nM | 0.00068 s⁻¹ | 1.24e+06 M⁻¹ s⁻¹ |
| C8 (antibody, V domains shown, Human IgG, transiently expressed in HEK293) VH: QVQLQESGPGLVKPLETLSLTCTVSGGSISSGSFYWTWIRQHPGKGLEWIGYIHSSGTTYYNPSLKSRLNISRDTSKNQFTLKLSSVTAADTAVYYCAKEIIQWPRRWFDPWGQGTLVTVSS VL: QSVLTQPPSVSAAPGQKVTISCSGSRSNIGKNYVYWYQQLPGTAPKLLIYDNNKRPSGIPDRFSGSKSGTSATLAITGLQTGDEADYYCGTWDSSLKTGIFFGGGTKLTVLG | > 50 µg/mL | 4.49 nM | 0.00186 s⁻¹ | 414000 M⁻¹ s⁻¹ |
| C5 (antibody, V domains shown, Human IgG, transiently expressed in HEK293) VH: QVQLQESGPGLVKPLETLSLTCTVSGGSISSGSFYWTWIRQHPGKGLEWIGYIHSSGTTYYNPSLKSRLNISRDTSKNQFTLKLSSVTAADTAVYYCAKEIIQWPRRWFDPWGQGTLVTVSS VL: QSMLTQPPSVSAAPGQKVIISCSGSSSNIGNNFVNWYQKFPGTAPKLLIYDNDKRPSGIPDRFSGSKSGTSATLGITGLQTGDEAEYYCGTWDSSLTAGVFGGGTTLTVLG | < 6 µg/mL | 0.278 nM | 0.000201 s⁻¹ | 721000 M⁻¹ s⁻¹ |
| C9 (antibody, V domains shown, Human IgG, transiently expressed in HEK293) VH: QVQLQESGPGLVKPLETLSLTCTVSGGSISSGSFYWTWIRQHPGKGLEWIGYIHSSGTTYYNPSLKSRLNISRDTSKNQFTLKLSSVTAADTAVYYCAKEIIQWPRRWFDPWGQGTLVTVSS VL: QSVLTQPPSVSAAPGQKVTISCSGSRSNIAKNYVYWYQQLPGTAPKLLIYDTNKRPSGIPDRFSGSKSGTSATLAITGLQTGDEADYYCGTWDSSLKTAIFFGGGTTVTVLG | > 50 µg/mL | 3.95 nM | 0.00238 s⁻¹ | 602000 M⁻¹ s⁻¹ |
| C10 (antibody, V domains shown, Human IgG, transiently expressed in HEK293) VH: QVQLQESGPGLVKPLETLSLTCTVSGGSISSGSFYWTWIRQHPGKGLEWIGYIHSSGTTYYNPSLKSRLNISRDTSKNQFTLKLSSVTAADTAVYYCAKEIIQWPRRWFDPWGQGTLVTVSS VL: QSVLTQPPSASGTPGQRVTISCSGSSSNIGSNYIDWYQQLPGTGPQLLTYRNNQRPSGVPDRFSGSKSGTSASLAISGLRSEDEADYYCASWDDSLSSPVFGGGTKLTVLG | > 50 µg/mL | 3.97 nM | 0.00197 s⁻¹ | 496000 M⁻¹ s⁻¹ |
| C7 (antibody, V domains shown, Human IgG, transiently expressed in HEK293) VH: QVQLQESGPGLVKPLETLSLTCTVSGGSISSGSFYWTWIRQHPGKGLEWIGYIHSSGTTYYNPSLKSRLNISRDTSKNQFTLKLSSVTAADTAVYYCAKEIIQWPRRWFDPWGQGTLVTVSS VL: not shown | > 50 µg/mL | 7.76 nM | 0.00604 s⁻¹ | 779000 M⁻¹ s⁻¹ |
| C4 (antibody, V domains shown, Human IgG, transiently expressed in HEK293) VH: QVQLQESGPGLVKPLETLSLTCTVSGGSISSGSFYWTWIRQHPGKGLEWIGYIHSSGTTYYNPSLKSRLNISRDTSKNQFTLKLSSVTAADTAVYYCAKEIIQWPRRWFDPWGQGTLVTVSS VL: QSVLTQPPSVSAAPGQKVIISCSGSGSNIGSHYVNWYQQLPGAAPKLLIYDNDKRPSGIPDRFSGSKSGTSATLAITGLQTGDEADYHCATWDGTLTAGVFGGGTKLTVLG | < 0.04 µg/mL | 0.695 nM | 0.00063 s⁻¹ | 908000 M⁻¹ s⁻¹ |
